Reference: the DeepSol protein solubility set

Test: soluble on expression in E. coli; label from the status in PepcDB or PDB records

| Sequence | soluble on expression in E. coli |
| --- | --- |
| MLQISHLYADYGGKPALEDINLTLESGELLVVLGPSGCGKTTLLNLIAGFVPYQHGSIQLAGKRIEGPGAERGVVFQNEGLLPWRNVQDNVAFGLQLAGIEKMQRLEIAHQMLKKVGLEGAEKRYIWQLSGGQRQRVGIARALAANPQLLLLDEPFGALDAFTRDQMQTLLLKLWQETGKQVLLITHDIEEAVFMATELVLLSSGPGRVLERLPLNFARRFVAGESSRSIKSDPQFIAMREYVLSRVFEQREAFS | soluble |
| RSDSMILMTVNPKTKKTTMMSLERDILTRIESGNGQAHEAKLNSAYADGGAELAIETIQKMMNIHIDRYVMVNMRGLQKLVDAVGGITVNNILGFPISISDQEEFNTISIGVGEQHIGGEEALVYARMRYQDPEGDYGRQKRQREVIQKVMEKALS | not soluble |
| MGLRPVSYTDSSVTPSVDGSIVLTAASVQSMPDSEESRLYGDDATYLAEGGRRQCPYTSNGPTFMETASFKKKRSKSADIWREDSLEFSLSDLSQEHLTSNEEILGSAEEKDCEEARGMETEASPRQLSTCQRANSLGDLYAQKNSGVKANGGPRNRFSSYCRNLVSDIPDLAKHKMPPAAAEETPPYSNYNTLPCRKSHCLSEGATNPQISLSKSMQGRRAKTTQDVNTGEGSEFADSGIEGATTDTDLLSRRSNATNSSYSPPTGRAFVGSDSGSSSTGDAARQGVYENFRRELEMSTTNSESLEEAGSAHSDEQSSGTLSSPGQSDILLTAAQGTVRKAGALAVKNFLVHKKNKKVESATRRKWKHYWVSLKGCTLFFYETDGRSGIDHNSVPKHAVWVENSIVQAVPEHPKKDFVFCLSNSLGDAFLFQTTSQTELENWITAIHSACAAAVARHHHKEDTLRLLKSEIKKLEQKIDMDEKMKKMGEMQLSSVTDSKKKKTILDQIFVWEQNLEQFQMDLFRFRCYLASLQGGELPNPKRLLAFASRPTKVAMGRLGIFSVSSFHALVAARTGEIGVRRRTQAMSRSASKRRSRFSSLWGLDTTSKKKQGRPTINQVFGEGTDAVKRSLEGIFDDTVPDGKREKEVVLPSVHQHNPDCDIWVHEYFTPSWFCLPNNQPALTVVRPGDTARDTLELICKTHQLDHSAHYLRLKFLMENRVQFYIPQPEEDIYELLYKEIEICPKVTQNIHIEKSDAAADNYGFLLSSVDEDGIRRLYVNSVKETGLASKKGLKAGDEILEINNRAAGTLNSSMLKDFLSQPSLGLLVRTYPEPEGGVELLENPPHRVDGPVDLGESPLAFLTSNPGHSLSSEQGSSAETAPEEGEGPDLESSDETDHSSKSTEQVAAFCRSLHEMSPSDSSPSPQDATSPQLATTRQLSDADKLRKVICELLETERTYVKDLNCLMERYLKPLQKETFLTQDELDVLFGNLTEMVEFQVEFLKTLEDGVRLVPDLEKLEKVDQFKKVLFSLGGSFLYYADRFKLYSAFCASHTKVPKVLVKAKTDTAFKAFLDAQNPRQQHSSTLESYLIKPIQRVLKYPLLLRELFALTDAESEEHYHLDVAIKTMNKVASHINEMQKIHEEFGAVFDQLIAEQTGEKKEVADLSMGDLLLHTSVIWLNPPASLGKWKKEPELAAFVFKTAVVLVYKDGSKQKKKLVGSHRLSIYEEWDPFRFRHMIPTEALQVRALPSADAEANAVCEIVHVKSESEGRPERVFHLCCSSPESRKDFLKSVHSILRDKHRRQLLKTESLPSAQQYVPFGGKRLCALKGARPAMSRAVSAPSKSLGRRRRRLARNRFTIDSDAISASSPEKEPQQPAGGGDTDRWVEEQFDLAQYEEQDDIKETDILSDDDEFCESLKGASVDRDLQEQLQAASISQRARGRRTLDSHASRMTQLKKQAALSGINGGLESASEEVIWVRREDFAPSRKLNTEI | soluble |
| MKIFNNVHCRIRNTISCSNYIFSAVWNFLISVFINKTNFNNSVYCRIFKVSIGLRKSISSTTRTRWVPVVFICSRSTNRWTGARSVNPIRNLIYIKLSILNKVRPIFRLEHHHHHH | not soluble |
